Measurements taken from US20200121801A1, “DRUG DELIVERY CONJUGATES CONTAINING UNNATURAL AMINO ACIDS AND METHODS FOR USING” (priority 2012, published 2020).

Legend:
[1] = Plasma clearance after s.c. administration; assay type: in vivo, Lewis rats
Procedure: METHOD. Plasma clearance. In vivo studies include a minimum of 3 test animals, such as rats, per time point. Illustratively, female Lewis rats with jugular vein catheters (Harlan, regular rodent diet) are given a single subcutaneous injection of test compound, such as EC1669 at 500 nmol/kg. Whole blood samples (300 μL) are collected at the following time points: 1 min, 10 min, 30 min, 1 h, 2 h, 3 h, 4 h, 8 h, and 12 h after injection. The blood samples are placed into anti-coagulant tubes containing 1.7 mg/mL of K3-EDTA and 0.35 mg/mL of N-maleoyl-beta-alanine (0.35 mg/mL) in a 0.15% acetic acid solution. Plasma samples are obtained by centrifugation for 3 min at ˜2,000 g and stored at −80° C. The amounts of test compound in the plasma and any metabolites, such as EC1669 and its two active metabolites aminopterin (AMT) and AMT hydrazide (EC0470), respectively, are quantified by LC-MS/MS.

[2] = target: T1, folate receptors (FRs) on KB cells (Homo sapiens, UniProt P15328); assay: Relative affinity assay (3H-folic acid competition) on KB cells; assay type: binding; settings: KB cells, 1 h at 37° C.
T1 construct: FR-positive KB cells are heavily seeded into 24-well cell culture plates; endogenous in cells; host or cells: KB cells

[3] = test system: adjuvant-induced arthritis; assay: Adjuvant-induced arthritis (AIA) model
Procedure: METHOD. Adjuvant-Induced Arthritis (AIA) Model. Female Lewis rats are fed a folate-deficient diet (Harlan Teklad, Indianapolis, Ind.) for 9-10 days prior to arthritis induction. The adjuvant-induced arthritis (AIA) is induced by intradermal inoculation (at the base of tail) of 0.4-0.5 mg of heat-killed Mycobacteria butyricum (BD Diagnostic Systems, Sparks, Md.) in 100 μL light mineral oil (Sigma). Ten days after arthritis induction, paw edema (degree of arthritis) in rats is assessed using a modified arthritis scoring system: 0=no arthritis; 1=swelling in one type of joint; 2=swelling in two types of joint; 3=swelling in three types of joint; 4=swelling of the entire paw. A total score for each rat is calculated by summarizing the scores for each of the four paws, giving a maximum score of 16 for each rat. On Day 10 post arthritis induction, rats with a total arthritis score of […] were removed from the study and the remaining rats are distributed evenly across the control and treatment groups (n=5 for all groups except that n=2-3 for healthy controls). All treatments are started on Day 10 unless indicated otherwise. Rat paws are also evaluated radiographically to assess and determine bone damage.
EXAMPLE. […] Starting 9 days after induction, rats with developing AIA are distributed according to arthritis scores into three groups (n=5): (1) the untreated AIA control, (2) the EC1669 treated group, and (3) the EC1669 plus EC0923 competition group. All treatments last for 2 consecutive weeks. The animals in the AIA control group are left untreated. The animals in the EC1669 treatment group are given twice-a-week subcutaneous doses of EC1669 at a dosage of 375 nmol/kg. The animals in the EC1669 plus EC0923 group are given twice-a-week subcutaneous doses of EC1669 at a dosage of 375 nmol/kg in conjunction to EC0923 at a dosage of 187.5 μmol/kg.
EXAMPLE. […] CellCept is a prodrug of mycophenolic acid, an immunosuppressant drug used to prevent organ rejection in transplantation. CellCept is activated in vivo and releases its active product that can inhibit T cell proliferation and interfere with leukocyte adhesion to endothelial cells. To test the combination effect of EC1669 and CellCept, rats with developing AIA are distributed according to arthritis scores into four groups (n=5): (1) the untreated AIA control, (2) the EC1669 treated group, (3) the CellCept treated group, and (4) the EC1669 and CellCept combination group. All treatments start on day 9 after AIA induction and last 2 consecutive weeks. The animals in the AIA control group are untreated. The animals in the EC1669 treatment group are given weekly subcutaneous doses of EC1669 at a dosage of 1000 nmol/kg. The animals in the CellCept treatment group are given daily oral doses of CellCept at a dosage of 30 mg/kg, 5 days per week. The animals in the EC1669 and CellCept combination treatment group are given weekly subcutaneous doses of EC1669 at a dosage of 1000 nmol/kg and daily oral doses of CellCept at a dosage of 30 mg/kg, 5 days per week.

[4] = target: T2, folate receptors (FR) on CHO-FRβ cells (Homo sapiens, UniProt P14207); assay: Relative affinity assay (3H-folic acid competition) on CHO-FRβ cells; assay type: binding; settings: 1 h at 37° C.
T2 construct: expressed in transfected cells; host or cells: CHO cells (CHO-FRβ)

[5] = 375 nmol/kg s.c. twice-a-week, 2 weeks

T2 sequence (P14207 17-230): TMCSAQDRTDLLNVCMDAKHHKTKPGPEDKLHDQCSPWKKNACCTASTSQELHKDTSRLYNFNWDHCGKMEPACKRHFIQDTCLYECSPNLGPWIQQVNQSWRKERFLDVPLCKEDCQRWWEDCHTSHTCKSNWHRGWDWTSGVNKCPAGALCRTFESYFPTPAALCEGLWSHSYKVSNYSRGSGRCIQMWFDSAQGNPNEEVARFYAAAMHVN
T1 sequence (P15328 25-234): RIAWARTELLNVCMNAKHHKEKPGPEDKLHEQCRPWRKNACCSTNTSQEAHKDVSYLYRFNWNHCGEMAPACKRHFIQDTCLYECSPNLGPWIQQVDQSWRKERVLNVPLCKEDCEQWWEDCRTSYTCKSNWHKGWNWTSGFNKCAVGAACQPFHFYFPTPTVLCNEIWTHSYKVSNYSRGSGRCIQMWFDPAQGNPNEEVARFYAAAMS

Compound: N=c1[nH]c(N)nc2ncc(CNc3ccc(C(=O)N[C@@H](CCC(=O)NNC(=O)OCCSSC[C@@H](NC(=O)[C@H](CCC(=O)NC[C@H](O)[C@@H](O)[C@H](O)[C@H](O)CO)NC(=O)[C@@H](CCC(=O)O)NC(=O)[C@H](CCC(=O)NC[C@H](O)[C@@H](O)[C@H](O)[C@H](O)CO)NC(=O)[C@@H](CCC(=O)O)NC(=O)[C@H](CCC(=O)NC[C@H](O)[C@@H](O)[C@H](O)[C@H](O)CO)NC(=O)CC[C@H](NC(=O)c4ccc(NCc5cnc6nc(N)[nH]c(=O)c6n5)cc4)C(=O)O)C(=O)O)C(=O)O)cc3)nc12 [EC1669]
- half-life ([1]; female, Lewis, rat, in vivo, sc, EC1669 500 nmol/kg s.c., blood, read-out: elimination half-life): ~37 min
- Cmax ([1]; female, Lewis, rat, in vivo, sc, EC1669 500 nmol/kg s.c., plasma, read-out: Cmax): ~472 nM
- AUC ([1]; female, Lewis, rat, in vivo, sc, EC1669 500 nmol/kg s.c., read-out: area-under-the-curve (AUC) (converted)): 0.867 µM·h
- % Released: AMT ([1]; plasma, 12 h collection period): 9.5%
- % Released: EC0470 ([1]; plasma, 12 h collection period): 6.3%
- % Released: Total (AMT plus EC0470) ([1]; plasma, 12 h collection period, based on AUC): ~15.8%
- AMT/EC0470 Ratio ([1]; rat, in vivo): 1.51
- relative affinity (normalized against folic acid, set to 1) [2]: 0.53
- reduction in paw swelling ([3]; 250 nmol/kg, biw): 64%
- whole animal toxicity (body weight) ([3]; 375 nmol/kg): does not exhibit whole animal toxicity
- alleviation of bone damage compared to control [3, 5]: ~80%
- alleviation of paw swelling compared to control [3, 5]: ~80%
- reduction in paw swelling ([3]; 500 nmol/kg, biw): 81%
- reduction in paw swelling ([3]; 1000 nmol/kg, siw): 44%
- anti-arthritic activity with folate competitor EC0923 ([3]; EC0923 187.5 μmol/kg co-dosed): competable (blocked)
- relative affinity (normalized against folic acid, set to 1) [4]: 0.13
